Data as given in article doi:10.1101/2024.08.08.607148 (bioRxiv, 2024).

Assays:
Assay in all cases: ELISA
[1] = molecular target: extracellular domain (ECD) of human LILRB1 (human, UniProt Q8NHL6 24-461, biotin (NHS-pEG12-biotin) in the competition ELISA)
[2] = molecular target: T1, variable region of RIFIN#1 (PF3D7_1254800, 165-274 aa) (P. falciparum, UniProt Q8I4N9)
[3] = molecular target: T1, variable region of RIFIN#1 …; remark: listed apart in the source

Chain of extracellular domain (ECD) of human LILRB1 (Q8NHL6 24-461): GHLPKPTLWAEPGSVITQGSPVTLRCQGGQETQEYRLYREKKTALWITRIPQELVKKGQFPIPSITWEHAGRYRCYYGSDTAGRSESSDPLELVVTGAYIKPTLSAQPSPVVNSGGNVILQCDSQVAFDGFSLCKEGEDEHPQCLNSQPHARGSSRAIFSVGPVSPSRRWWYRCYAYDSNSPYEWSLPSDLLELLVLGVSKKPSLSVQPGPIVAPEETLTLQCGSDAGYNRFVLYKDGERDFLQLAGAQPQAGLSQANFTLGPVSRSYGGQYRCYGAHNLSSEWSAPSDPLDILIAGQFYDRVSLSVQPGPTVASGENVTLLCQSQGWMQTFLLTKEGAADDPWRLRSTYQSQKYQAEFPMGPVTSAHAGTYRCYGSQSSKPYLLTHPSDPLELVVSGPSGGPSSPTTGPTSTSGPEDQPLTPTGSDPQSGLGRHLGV

B1: variable region of RIFIN#1 (PF3D7_1254800, 165-274 aa) (domain or fragment, P. falciparum, UniProt Q8I4N9 165-274, looked up)
chain: NYETINAFIAKTIEELEGIPGITKLFGAKISQFVTPAVFRKPMSLVETILSEKKKLCLCAANKNELLCRGMNPNVPETLPKKIEVAVNEVLSSVNDTWATATTPTTFFTN
Kd [1]: ~650 nM

B2: D1D2.v-IgG (LILRB1 D1D2.v-containing antibody on the MDB1 scaffold) (antibody, V domains shown)
VH: QITLKESGPTLVERTQTLTLTCTFSGFSLTTDGLGVGWIRQPPGKALEWLALIYYDDVRRYRPSLKSRLTITKDTSKNRVVLTVTDMDPVDAGTYFCVHASLFNLGSRNVYFRYWGQGTLVSVSS
VL: SYDLTQPPSVSVSPGQTARITCSGDSLARQFASWYQQKPGQSPVLLIYKNIERLSAIPERFSGSTSGTSVTLTISGVQAEDEADYFCQSADDSGSYSLFGTGTRVSVL
Kd [2]: 6 nM | IC50 [3]: 20 nM
